This assay deals with T1, human FcRn (human, UniProt P55899 24-297; P61769 21-119, limits assumed).
T1 construct: the construct, its source and whether b2m was present are not described; also called neonatal Fc receptor
Nature of the assay: in vitro binding to human FcRn at pH 6; method not described.

Usually Kd stands for the free concentration of one partner at which half of the binding sites on the other are occupied at equilibrium, for simple one-to-one binding.

T1 sequence (P55899 24-297 limits assumed, chain 1 of 2): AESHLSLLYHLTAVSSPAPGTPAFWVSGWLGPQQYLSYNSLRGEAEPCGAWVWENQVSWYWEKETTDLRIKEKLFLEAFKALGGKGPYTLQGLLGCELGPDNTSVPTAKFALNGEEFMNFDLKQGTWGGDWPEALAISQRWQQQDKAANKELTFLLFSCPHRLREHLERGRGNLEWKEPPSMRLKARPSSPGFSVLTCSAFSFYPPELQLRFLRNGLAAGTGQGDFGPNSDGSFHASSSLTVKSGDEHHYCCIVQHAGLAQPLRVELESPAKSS
T1 sequence (P61769 21-119 limits assumed, chain 2 of 2): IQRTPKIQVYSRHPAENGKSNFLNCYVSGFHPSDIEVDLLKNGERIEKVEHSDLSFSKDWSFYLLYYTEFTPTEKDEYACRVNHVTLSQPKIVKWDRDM

B1: CocH-LAF6 (Fc fusion)
chain: EDDIIIATKNGKVRGMNLTVFGGTVTAFLGIPYAQPPLGRLRFKKPQSLTKWSDIWNATKYANSCCQNIDQSFPGFHGSEMWNPNTDLSEDCLYLNVWIPAPKPKNATVLIWIYGGGFQTGTSSLHVYDGKFLARVERVIVVSMNYRVGALGFLALPGNPEAPGNMGLFDQQLALQWVQKNIAAFGGNPKSVTLFGESSGAASVSLHLLSPGSHSLFTRAILQSGSANAPWAVTSLYEARNRTLNLAKLTGCSRENETEIIKCLRNKDPQEILLNEAFVVPYGTPLGVNFGPTVDGDFLTDMPDILLELGQFKKTQILVGVNKDEGTWFLVGGAPGFSKDNNSIITRKEFQEGLKIFFPGVSEFGKESILFHYTDWVDDQRPENYREALGDVVGDYNFICPALEFTKKFSEWGNNAFFYYFEHRSSKLPWPEWMGVMHGYEIEFVFGLPLERRDNYTKAEEILSRSIVKRWANFAKYGNPNETQNNSTSWPVFKSTEQKYLTLNTESTRIMTKLRAQQCRFWTSFFPKVVEPKSCDKTHTCPPCPAPELLGGPSVFLFPPKPKDTLYITREPEVTCVVVDVSHEDPEVKFNWYVDGVEVHNAKTKPREEQYNSTYRVVSVLTVLHQDWLNGKEYKCKVSNKALPAPIEKTISKAKGQPREPQVYTLPPSREEMTKNQVSLTCLVKGFYPSDIAVEWESNGQPENNYKTTPPVLDSDGSFFLYSKLTVDKSRWQQGNVFSCSVMHEALHNHYTQKSLSLSPGK
notes: Direct fusion without a linker; also called CocH3-LAF6; CocH3(529)-Fc(M6)
On to B1, for which the dissociation constant (Kd) came out at 43 nM. That is a double-digit nanomolar value.

B2: CocH-LAF8 (Fc fusion)
chain: EDDIIIATKNGKVRGMNLTVFGGTVTAFLGIPYAQPPLGRLRFKKPQSLTKWSDIWNATKYANSCCQNIDQSFPGFHGSEMWNPNTDLSEDCLYLNVWIPAPKPKNATVLIWIYGGGFQTGTSSLHVYDGKFLARVERVIVVSMNYRVGALGFLALPGNPEAPGNMGLFDQQLALQWVQKNIAAFGGNPKSVTLFGESSGAASVSLHLLSPGSHSLFTRAILQSGSANAPWAVTSLYEARNRTLNLAKLTGCSRENETEIIKCLRNKDPQEILLNEAFVVPYGTQLGVNFGPTVDGDFLTDMPDILLELGQFKKTQILVGVNKDEGTWFLVGGAPGFSKDNNSIITRKEFQEGLKIFFPGVSEFGKESILFHYTDWVDDQRPENYREALGDVVGDYNFICPALEFTKKFSEWGNNAFFYYFEHRSSKLPWPEWMGVMHGYEIEFVFGLPLERRDNYTKAEEILSRSIVKRWANFAKYGNPNETQNNSTSWPVFKSTEQKYLTLNTESTRIMTKLRAQQCRFWTSFFPKVVEPKSCDKTHTCPPCPAPELLGGPSVFLFPPKPKDTLYITREPEVTCVVVDVSHEDPEVKFNWYVDGVEVHNAKTKPREEQYNSTYRVVSVLTVLHQDWLNGKEYKCKVSNKALPAPIEKTISKAKGQPREPQVYTLPPSREEMTKNQVSLTCLVKGFYPSDIAVEWESNGQPENNYKTTPPVLDSDGSFFLYSKLTVDKSRWQQGNVFSCSVMHEALHNHYTQKSLSLSPGK
notes: Direct fusion without a linker; also called CocH2-LAF8; A199S/F227A/P285Q/S287G/A328W/Y332G/A530V/M567Y/S569T/T571E/D671E/L673M mutant of BChE(529)-Fc
B2 gave a Kd of 43 nM.

B3: CocH-LAF7 (Fc fusion)
chain: EDDIIIATKNGKVRGMNLTVFGGTVTAFLGIPYAQPPLGRLRFKKPQSLTKWSDIWNATKYANSCCQNIDQSFPGFHGSEMWNPNTDLSEDCLYLNVWIPAPKPKNATVLIWIYGGGFQTGTSSLHVYDGKFLARVERVIVVSMNYRVGALGFLALPGNPEAPGNMGLFDQQLALQWVQKNIAAFGGNPKSVTLFGESSGAASVSLHLLSPGSHSLFTRAILQSGSANAPWAVTSLYEARNRTLNLAKLTGCSRENETEIIKCLRNKDPQEILLNEAFVVPYGTALGVNFGPTVDGDFLTDMPDILLELGQFKKTQILVGVNKDEGTWFLVGGAPGFSKDNNSIITRKEFQEGLKIFFPGVSEFGKESILFHYTDWVDDQRPENYREALGDVVGDYNFICPALEFTKKFSEWGNNAFFYYFEHRSSKLPWPEWMGVMHGYEIEFVFGLPLERRDNYTKAEEILSRSIVKRWANFAKYGNPNETQNNSTSWPVFKSTEQKYLTLNTESTRIMTKLRAQQCRFWTSFFPKVVEPKSCDKTHTCPPCPAPELLGGPSVFLFPPKPKDTLYITREPEVTCVVVDVSHEDPEVKFNWYVDGVEVHNAKTKPREEQYNSTYRVVSVLTVLHQDWLNGKEYKCKVSNKALPAPIEKTISKAKGQPREPQVYTLPPSREEMTKNQVSLTCLVKGFYPSDIAVEWESNGQPENNYKTTPPVLDSDGSFFLYSKLTVDKSRWQQGNVFSCSVMHEALHNHYTQKSLSLSPGK
notes: Direct fusion without a linker; also called CocHl-LAF7; CocH1-LAF7
Turning to B3, the dissociation constant Kd is 43 nM.

(Values after US20210189359A1 (UNIVERSITY OF KENTUCKY RESEARCH FOUNDATION, published 2021).)
